In patent US20240383958A1, “APELIN RECEPTOR AGONISTS AND USES THEREOF” (VISTERRA, INC., priority 2023, published 2024):
Residue numbers refer to the chain shown, from its start. Names and notes keep the numbering of the source.

T1: apelin receptor (Homo sapiens, UniProt P35414)
T1 construct: host or cells: human heart tissue
T1 sequence (P35414 1-380): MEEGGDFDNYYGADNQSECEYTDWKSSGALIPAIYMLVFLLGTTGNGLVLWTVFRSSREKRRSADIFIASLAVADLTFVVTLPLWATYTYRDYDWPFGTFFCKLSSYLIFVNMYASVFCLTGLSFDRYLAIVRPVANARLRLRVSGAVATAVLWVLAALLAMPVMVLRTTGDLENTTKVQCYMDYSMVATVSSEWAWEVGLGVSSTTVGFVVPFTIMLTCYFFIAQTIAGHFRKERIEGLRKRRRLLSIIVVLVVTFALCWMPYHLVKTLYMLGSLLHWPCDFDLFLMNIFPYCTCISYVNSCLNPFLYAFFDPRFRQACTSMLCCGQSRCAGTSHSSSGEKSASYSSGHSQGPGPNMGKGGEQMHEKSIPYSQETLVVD

T2: apelin receptor (AGTRL1) (Homo sapiens, UniProt P35414)
T2 construct: host or cells: CHO-K1
T2 sequence (P35414 1-380): T1 sequence (P35414 1-380)

T3: apelin receptor (AGTRL1) on CHO-K1 cells (UniProt P35414 1-380, limits assumed)
T3 sequence (looked up): T1 sequence (P35414 1-380)

T4: APJ-eGFP fusion protein on CHO-M1 cells (UniProt P35414 1-380)
T4 sequence (looked up): T1 sequence (P35414 1-380)

B1: ELA-D: Fc-linker fusion of elabela analogue KLRKHNCLQRRCMPLHQRVPFP (S17Q) (protein)
chain: MRAWIFFLLCLAGRALADKTHTSPPSPAPEAAGGPSVFLFPPKPKDTLMISRTPEVTCVVVDVSHEDPEVKFNWYVDGVEVHNAKTKPREEQYNSTYRVVSVLTVLHQDWLNGKEYKCKVSNKALPAPIEKTISKAKGQPREPQVYTLPPSREEMTKNQVNLTCLVKGFYPSDIAVEWESNGQPENNYKTTPPVLDSDGSFFLNSTLTVDKSRWQQGNVFSCSVMHEALHNHYTQKSLSLSPGKGGGGSGGGGSGGGGSKLRKHNCLQRRCMPLHQRVPFP
B2: ELA-E: Fc-linker fusion of elabela analogue KLRKHNCLQRRCMPLHRRVPFP (S17R) (protein)
chain: B1 chain with Q276R
B3: ELA-J: Fc-linker fusion of elabela analogue KLRKHNCLQERCMPLHSRVPFP (R10E) (protein)
chain: B1 chain with R269E, Q276S
B4: ELA-F (Fc fusion)
chain: DKTHTSPPSPAPEAAGGPSVFLFPPKPKDTLMISRTPEVTCVVVDVSHEDPEVKFNWYVDGVEVHNAKTKPREEQYNSTYRVVSVLTVLHQDWLNGKEYKCKVSNKALPAPIEKTISKAKGQPREPQVYTLPPSREEMTKNQVNLTCLVKGFYPSDIAVEWESNGQPENNYKTTPPVLDSDGSFFLNSTLTVDKSRWQQGNVFSCSVMHEALHNHYTQKSLSLSPGKGGGGSGGGGSGGGGSKLRKHNCLKRRCMPLHSRVPFP
B5: ELA-K (Fc fusion)
chain: B4 chain with K251I
B6: ELA-G (Fc fusion)
chain: B4 chain with K251Q, R260Y
B7: ELA-L (Fc fusion)
chain: B4 chain with L250A, K251T
B8: ELA-H (Fc fusion)
chain: B4 chain with K251Q, L257Y

Assays:
apelin receptor = biological target: T1, apelin receptor; details: human heart; cited from earlier work
apelin receptor (AGTRL1) = biological target: T2, apelin receptor (AGTRL1); test: PathHunter beta-arrestin signaling assay; assay type: cell-based; details: PathHunter CHO-K1 AGTRL1 β-arrestin cells
Protocol: In this example, commercially available HitHunter® cAMP assay was used to determine the effect of apelin receptor agonists on Gai signaling, measured cAMP depletion. Next, commercially available PathHunter® beta-arrestin assay was used to determine the effect of apelin receptor agonists on beta-arrestin signaling. Additionally, the effect of apelin receptor agonists on ERK signaling was determined.
In a 384-well plate (Corning #3897), PathHunter® CHO-K1 AGTRL1 β-arrestin cells (Eurofins DiscoverX #93-0250C2) were seeded at 5×10^3 cells/well in 20 μL AssayComplete Cell Plating 2 Reagent (Eurofins DiscoverX #93-0563R2A) and were incubated overnight at 37° C. with 5% CO2. On the following day, the plate was treated with 5 μL/well of compounds serially diluted in 1×PBS+0.1% BSA buffer and was incubated for 1.5 hr at 37° C. with 5% CO2. Then, 12.5 μL/well of detection solution was added, prepared as instructed in the PathHunter® Detection Kit (Eurofins DiscoverX #93-0001), the plate was wrapped in foil, and was incubated at room temperature. Plates were read after 1-2 hr of incubation on a standard luminescence plate reader. In this assay, low levels of β-arrestin in cells were directly related to low luminescence signal. Using Four Parameter Logistic Regression for curve fitting, the raw data file was processed into S-shaped dose-response curves from which values, such as the EC50, Hill Slope, and Emax, were quantified.

[1] = Proteolysis during production detected using mass spectroscopy; assay type: physicochemical; details: proteolytic stability
Source text: Proteolysis during production was detected using mass spectroscopy, which provides insights into the proteolytic stability of the apelin receptor agonists.

APJ-eGFP fusion protein = test: Internalization assay, CHO-M1 cells expressing APJ-eGFP, high-content imaging; assay type: cell-based; design: key: 0: No Internalization; >1000; 2: 100-1000; 3: 10-100; 4: <10; details: lowest concentration at which maximum internalization was observed; 0.914 nM to 2000 nM
Protocol: In this example, the internalization of exemplary apelin receptor agonist was assessed. CHO-M1 cells expressing an APJ-eGFP fusion protein were stained and plated in a 96-well plate. Apelin receptor agonists were serially diluted and added to the wells at concentrations ranging from 0.914 nM to 2000 nM. The cells were later imaged using an Operetta CLS™ high-content analysis system. APJ-eGFP signal was measured in the membrane and cytoplasmic region, and the ratio of membrane signal to total signal was calculated (E ratio). An internalization score was assigned based on the lowest concentration of the compound at which maximum internalization was observed. The internalization score for each apelin receptor agonist was plotted against the EC50 values for cAMP signaling and beta-arrestin signaling as shown in FIG. 2 and FIG. 3.

[2] = biological target: T3, apelin receptor (AGTRL1) on CHO-K1 cells; test: cell-based or functional assay
[3] = biological target: T4, APJ-eGFP fusion protein on CHO-M1 cells; test: cell-based or functional assay

Molecule | affinity for the apelin receptor (apelin receptor) | beta-Arrestin EC50 (nM) Exp. 1 (apelin receptor (AGTRL1)) | Proteolysis During Production? [1] | Internalization Score (APJ-eGFP fusion protein) | beta-Arrestin EC50 (nM) Exp. 2 (apelin receptor (AGTRL1); Exp. 2) | beta-Arrestin EC50 (nM) Exp. 1 [2] [nM] | beta-Arrestin EC50 (nM) Exp. 2 [2] [nM] | cAMP EC50 (nM) Exp. 1 [2] [nM] | cAMP EC50 (nM) Exp. 2 [2] [nM] | Internalization Score [3]
elabela-21 | nanomolar affinity | – | – | – | – | – | – | – | – | –
B1 | – | Weak | No | 1 (>1000) | – | – | – | – | – | –
B2 | – | Weak | No | 0 | – | – | – | – | – | –
B3 | – | – | Yes | – | Weak | – | – | – | – | –
B4 | – | – | – | – | – | 9.59 | 43.5 | 1.01 | 1 | 3
B5 | – | – | – | – | – | 3.45 | 12.2 | 4.76 | 5.7 | 2
B6 | – | – | – | – | – | 89.1 | 521 | 9.91 | 14.3 | 1
B7 | – | – | – | – | – | 7.54 | 6.9 | 0.632 | 2.8 | 2
B8 | – | – | – | – | – | 21.9 | 97.5 | 10 | 5.8 | 2
